# Laboratory results from patent publication US20070243583A1 (University of Texas, published 2007).
# T1: RNase A (UniProt P61823 27-150)
# T1 sequence (looked up): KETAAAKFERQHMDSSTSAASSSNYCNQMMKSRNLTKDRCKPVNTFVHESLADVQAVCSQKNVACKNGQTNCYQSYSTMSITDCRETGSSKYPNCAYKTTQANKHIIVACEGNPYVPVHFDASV
# B1: FkpA-DsbA4 (protein)
# chain: AEAAKPATAADSKAAFKNDDQKSAYALGASLGRYMENSLKEQEKLGIKLDKDQLIAGVQDAFADKSKLSDQEIEQTLQAFEARVKSSAQAKMEKDAADNEAKGKEYREKFAKEKEDGKQYTTLEKPVAGAPQVLEFFSFFCPHCYQFEEVLHISDNVKKKLPEGVKMTKYHVNFMGGDLGKDLTQAWAVAMALGVEDKVTVPLFEGVQKTQTIRSASDIRDVFINAGIKGEEYDAAWNSFVVKSLVAQQEKAAADVQLRGVPAMFVNGKYQLNPQGMDTSNMDVFVQQYADTVKYLSEKKHHHHHH
# B2: FkpA-DsbA2 (protein)
# chain: AEAAKPATAADSKAAFKNDDQKSAYALGASLGRYMENSLKEQEKLGIKLDKDQLIAGVQDAFADKSKLSDQEIEQTLQAFEARVKSSAQAKMEKDAADNEAKGKEYREKFAKEKQYEDGKQYTTLEKPVAGAPQVLEFFSFFCPHCYQFEEVLHISDNVKKKLPEGVKMTKYHVNFMGGDLGKDLTQAWAVAMALGVEDKVTVPLFEGVQKTQTIRSASDIRDVFINAGIKGEEYDAAWNSFVVKSLVAQQEKAAADVQLRGVPAMFVNGKYQLNPQGMDTSNMDVFVQQYADTVKYLSEKKHHHHHH
# B3: DsbC (enzyme, Escherichia coli, UniProt P0AEG6 21-236, looked up)
# chain: DDAAIQQTLAKMGIKSSDIQPAPVAGMKTVLTNSGVLYITDDGKHIIQGPMYDVSGTAPVNVTNKMLLKQLNALEKEMIVYKAPQEKHVITVFTDITCGYCHKLHEQMADYNALGITVRYLAFPRQGLDSDAEKEMKAIWCAKDKNKAFDDVMAGKSVAPASCDVDIADHYALGVQLGVSGTPAVVLSNGTLVPGYQPPKEMKEFLDEHQKMTSGK
# notes: also called wild-type DsbC
# B4: FkpA-DsbA5 (protein)
# chain: AEAAKPATAADSKAAFKNDDQKSAYALGASLGRYMENSLKEQEKLGIKLDKDQLIAGVQDAFADKSKLSDQEIEQTLQAFEARVKSSAQAKMEKDAADNEAKGKEYREKFAKEKDGKQYTTLEKPVAGAPQVLEFFSFFCPHCYQFEEVLHISDNVKKKLPEGVKMTKYHVNFMGGDLGKDLTQAWAVAMALGVEDKVTVPLFEGVQKTQTIRSASDIRDVFINAGIKGEEYDAAWNSFVVKSLVAQQEKAAADVQLRGVPAMFVNGKYQLNPQGMDTSNMDVFVQQYADTVKYLSEKKHHHHHH
# B5: FkpA-DsbA3 (protein)
# chain: AEAAKPATAADSKAAFKNDDQKSAYALGASLGRYMENSLKEQEKLGIKLDKDQLIAGVQDAFADKSKLSDQEIEQTLQAFEARVKSSAQAKMEKDAADNEAKGKEYREKFAKEKYEDGKQYTTLEKPVAGAPQVLEFFSFFCPHCYQFEEVLHISDNVKKKLPEGVKMTKYHVNFMGGDLGKDLTQAWAVAMALGVEDKVTVPLFEGVQKTQTIRSASDIRDVFINAGIKGEEYDAAWNSFVVKSLVAQQEKAAADVQLRGVPAMFVNGKYQLNPQGMDTSNMDVFVQQYADTVKYLSEKKHHHHHH
# What was measured:
# [1] = target: the molecule itself; experiment: gel filtration FPLC of the purified protein (self-association, homodimer)
# RNase A = target: T1, RNase A; experiment: cell-based or functional assay
binder,measurement,setting,value
B1,Insulin Reduction (*10^3 DA650 nm/min^-2),insulin,0.55
same,"Citrate Synthase Inactivation, CS t1/2",citrate synthase,3.82 min
same,"Citrate Synthase Inactivation, µ",citrate synthase,0.45 min - 1
B2,Insulin Reduction (*10^3 DA650 nm/min^-2),insulin,0.45
same,"Citrate Synthase Inactivation, CS t1/2",citrate synthase,2.46 min
same,"Citrate Synthase Inactivation, µ",citrate synthase,0.17 min - 1
B3,Insulin Reduction (*10^3 DA650 nm/min^-2),insulin,5.81
same,"Citrate Synthase Inactivation, CS t1/2",citrate synthase,3.15 min
same,"Citrate Synthase Inactivation, µ",citrate synthase,0.22 min - 1
same,binding result,[1],binds
same,RNAse Refolding,RNase A,0.067 µM/min/µM Enzyme
B4,Insulin Reduction (*10^3 DA650 nm/min^-2),insulin,0.38
same,"Citrate Synthase Inactivation, CS t1/2",citrate synthase,2.71 min
same,"Citrate Synthase Inactivation, µ",citrate synthase,0.26 min - 1
B5,Insulin Reduction (*10^3 DA650 nm/min^-2),insulin,0.43
same,"Citrate Synthase Inactivation, CS t1/2",citrate synthase,2.01 min
same,"Citrate Synthase Inactivation, µ",citrate synthase,0.36 min - 1
